# Results taken from publication PMC8442604 (Frontiers in Immunology, 2021).
# Tests used:
# [1] = molecular target: T1, SARS-CoV-2 RBD protein (321–591) (SARS-CoV-2, Wuhan-Hu-1 (MN908947), UniProt P0DTC2); assay: ELISA; conditions: one partner purified
# [2] = molecular target: T1, SARS-CoV-2 RBD protein (321–591); assay: cell-based or functional assay
# [3] = molecular target: T1, SARS-CoV-2 RBD protein (321–591); assay: SPR; conditions: both partners purified
Binder,binding result [1],IC50 of neutralisation of authentic SARS-CoV-2 on Vero E6 cells (CPE assay) [2] [µg/mL],Kd [3] [nM]
"LCA60 (antibody, V domains shown, also called MERS nAb LCA60) VH: EVQLLESGGGLVKPGGSLRLSCEASGLTFSNVWMSWVRQAPGKGLEWVGRIKRKSEGATTDYGAPVKGRFTLSRDDSKNTVYLQMNSLKIDDTAVYYCSTLTRGGDVWSSSYYFDYWGQGALVTVSS VL: QSALTQPASVSGSPGQSITISCTGTSSDVGTYDLVSWYQQHPGKSPKLMIYADIKRPSGVSHRFSGSKSGNTASLTISGLQSADEADYYCCLYAGSSTSVIFGGGTKVT",no binding,,
"CB6H-XG83L (antibody, V domains shown) VH: EVQLVESGGGLVQPGGSLRLSCAASGFTVSSNYMSWVRQAPGKGLEWVSVIYSGGSTFYADSVKGRFTISRDNSMNTLFLQMNSLRAEDTAVYYCARVLPMYGDYLDYWGQGTLVTVSS VL: QSVLTQPPSVSGAPGQRVTISCTGSSSNIGAGYDVHWYQQLPGTAPKLLIYGDSNRPSGVPDRFSGSKSGTSASLAITGLQAEDEADFYCQSYDSSLSTSIFGGGTKLTVL",,1.1,0.58
"CB6 (antibody, V domains shown) VH: EVQLVESGGGLVQPGGSLRLSCAASGFTVSSNYMSWVRQAPGKGLEWVSVIYSGGSTFYADSVKGRFTISRDNSMNTLFLQMNSLRAEDTAVYYCARVLPMYGDYLDYWGQGTLVTVSS VL: not shown",,,43.8
"CC12.3 (antibody, V domains shown) VH: QVQLVESGGGLIQPGGSLRLSCAASGFTVSSNYMSWVRQAPGKGLEWVSVIYSGGSTFYADSVKGRFTISRDNSKSTLYLQMNSLRVEDTAVYYCARDFGDFYFDYWGQGTLVTVSS VL: not shown",binds,,
"C105 (antibody, V domains shown) VH: QVQLVESGGGLIQPGGSLRLSCAASGFTVSSNYMSWVRQAPGKGLEWVSVIYSGGSTYYADSVKGRFTISRDNSKNTLYLQMNSLRAEDTAVYYCARGEGWELPYDYWGQGTLVTVSS VL: QSALTQPPSASGSPGQSVTISCTGTSSDVGGYKYVSWYQQHPGKAPKLMIYEVSKRPSGVPDRFSGSKSGNTASLTVSGLQAEDEADYYCSSYEGSNNFVVFGGGTKLTVL",binds,,
"EY6A (antibody, V domains shown) VH: EVQLVESGGGVVQPGRSLRLSCAASAFTFSSYDMHWVRQAPGKGLEWVAVISYDGSNKYYADSVKGRFTISRDNSKNTLYLQMNSLRAEDTAVYYCAKDGGKLWVYYFDYWGQGTLVTVSS VL: not shown",binds,,
"REGN10933 (antibody, V domains shown) VH: QVQLVESGGGLVKPGGSLRLSCAASGFTFSDYYMSWIRQAPGKGLEWVSYITYSGSTIYYADSVKGRFTISRDNAKSSLYLQMNSLRAEDTAVYYCARDRGTTMVPFDYWGQGTLVTVSS VL: DIQMTQSPSSLSASVGDRVTITCQASQDITNYLNWYQQKPGKAPKLLIYAASNLETGVPSRFSGSGSGTDFTFTISGLQPEDIATYYCQQYDNLPLTFGGGTKVEIK",binds,,
"REGN10987 (antibody, V domains shown) VH: QVQLVESGGGVVQPGRSLRLSCAASGFTFSNYAMYWVRQAPGKGLEWVAVISYDGSNKYYADSVKGRFTISRDNSKNTLYLQMNSLRTEDTAVYYCASGSDYGDYLLVYWGQGTLVTVSS VL: QSALTQPASVSGSPGQSITISCTGTSSDVGGYNYVSWYQQHPGKAPKLMIYDVSKRPSGVSNRFSGSKSGNTASLTISGLQSEDEADYYCNSLTSISTWVFGGGTKLTVL",binds,,
"2-4 (antibody, V domains shown) VH: QVQLVQSGAEVKKPGASVKVSCKASGYTFTGYYMHWVRQAPGQGLEWMGWINPNSGGTNYTQMFQGRVTMTRDTSISTAYMEVSRLRSDDTAVYYCARDRSWAVVYYYMDVWGKGTTVTVSS VL: QSALTQPPSASGSPGQSVTISCTGTSSDVGGYNYVSWYQQHPGKAPKLMIYEVSKRPSGVPDRFSGSKSGNTASLTVSGLQAEDEADYYCSSYAGSNNLVFGGGTKLTVL",binds,,
"B38 (antibody, V domains shown) VH: EVQLVESGGGLVQPGGSLRLSCAASGFIVSSNYMSWVRQAPGKGLEWVSVIYSGGSTYYADSVKGRFTISRHNSKNTLYLQMNSLRAEDTAVYYCAREAYGMDVWGQGTTVTVSS VL: DIVMTQSPSFLSASVGDRVTITCRASQGISSYLAWYQQKPGKAPKLLIYAASTLQSGVPSRFSGSGSGTEFTLTISSLQPEDFATYYCQQLNSYPPYTFGQGTKLEIK",binds,,
"4A8 (antibody, V domains shown) VH: EVQLVESGAEVKKPGASVKVSCKVSGYTLTELSMHWVRQAPGKGLEWMGGFDPEDGETMYAQKFQGRVTMTEDTSTDTAYMELSSLRSEDTAVYYCATSTAVAGTPDLFDYYYGMDVWGQGTTVTVSS VL: EIVMTQSPLSSPVTLGQPASISCRSSQSLVHSDGNTYLSWLQQRPGQPPRLLIYKISNRFSGVPDRFSGSGAGTDFTLKISRVEAEDVGVYYCTQATQFPYTFGQGTKVDIK",no binding,,
